Measured values: publication PMC3286869 (Journal of Medicinal Chemistry, 2012)
Bridges are numbered along the chain shown (N, C = ends). Where no end group is shown, it is not given here. [ ]: non-standard residue; d: D form. dLys(N3) = [N-]=[N+]=NCCCC[C@@H](N)C(=O)O; Lys(N3) = [N-]=[N+]=NCCCC[C@H](N)C(=O)O; dPra = C#CC[C@@H](N)C(=O)O; Pra = C#CC[C@H](N)C(=O)O

T1: β-catenin (UniProt P35222 1-781)
T1 sequence (looked up): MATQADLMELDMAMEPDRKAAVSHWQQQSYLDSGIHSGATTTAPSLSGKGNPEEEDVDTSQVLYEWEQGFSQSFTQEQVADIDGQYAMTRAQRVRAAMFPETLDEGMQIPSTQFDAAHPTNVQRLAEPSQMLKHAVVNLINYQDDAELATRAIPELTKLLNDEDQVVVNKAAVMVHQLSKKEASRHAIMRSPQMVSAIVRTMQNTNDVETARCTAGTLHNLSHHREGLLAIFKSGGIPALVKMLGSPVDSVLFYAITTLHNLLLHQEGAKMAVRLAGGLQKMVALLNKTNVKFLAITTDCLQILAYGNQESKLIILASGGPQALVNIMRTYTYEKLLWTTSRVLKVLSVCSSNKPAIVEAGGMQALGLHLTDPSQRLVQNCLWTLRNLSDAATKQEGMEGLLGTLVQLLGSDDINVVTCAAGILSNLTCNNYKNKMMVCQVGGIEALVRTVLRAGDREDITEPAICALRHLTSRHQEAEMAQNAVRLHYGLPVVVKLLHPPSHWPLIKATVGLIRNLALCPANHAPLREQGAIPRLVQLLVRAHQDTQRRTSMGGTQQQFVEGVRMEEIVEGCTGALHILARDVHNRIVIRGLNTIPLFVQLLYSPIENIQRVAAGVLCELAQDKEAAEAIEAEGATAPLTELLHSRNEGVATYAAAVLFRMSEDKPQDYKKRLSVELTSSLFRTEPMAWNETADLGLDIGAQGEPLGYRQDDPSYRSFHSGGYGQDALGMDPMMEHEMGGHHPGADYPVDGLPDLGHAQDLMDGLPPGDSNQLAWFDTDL


target: T1, β-catenin; test: fluorescence polarisation

Ki [nM]	Binder
410	LSQEQ[Lys(N3)]EHR[dPra]RSLQTLRDIQRLLF (triazole 6-10; not fully specified (N-terminus, C-terminus)) [triazole-stapled BCL9 peptide 20 (staple closer to the N-terminus)]
260	LSQEQLEHRERSL[Lys(N3)]TLR[dPra]IQRLLF (triazole 14-18; not fully specified (N-terminus, C-terminus)) [triazole-stapled BCL9 peptide 22 (C-terminal stapled peptide)]
560	LSQEQLEHRERSL[Pra]TLR[dLys(N3)]IQRLLF (triazole 14-18; not fully specified (N-terminus, C-terminus)) [triazole-stapled BCL9 peptide 24 (reverse staple towards the C-terminus)]

The remaining lines, values behind:

Binder	Ki [nM]
LSQEQLEHRERSL[Pra]TLR[dLys(N3)]IQRLLF (not fully specified (N-terminus, C-terminus)) [BCL9 peptide 23 (reverse linkers towards the C-terminus, linear)]	6660
LSQEQ[Lys(N3)]EHR[dPra]RSLQTLRDIQRLLF (not fully specified (N-terminus, C-terminus)) [BCL9 peptide 19 (linkers closer to the N-terminus, linear)]	1970
LSQEQLEHRERSL[Lys(N3)]TLR[dPra]IQRLLF (not fully specified (N-terminus, C-terminus)) [BCL9 peptide 21 (linkers closer to the C-terminus, linear)]	2010

target: T1, β-catenin; test: fluorescence polarisation; remark: another data set of the same source

Ki [nM]	Binder
130	LSQEQLEHR[Lys(N3)]RSL[dPra]TLRDIQRLLF (triazole 10-14; not fully specified (N-terminus, C-terminus)) [triazole-stapled BCL9 peptide 12]
4300	LSQEQLEHR[dPra]RSL[Lys(N3)]TLRDIQRLLF (triazole 10-14; not fully specified (N-terminus, C-terminus)) [triazole-stapled BCL9 peptide 18 (reversed staple, D-Pra at position 360)]
1170	LSQEQLEHR[Pra]RSL[dLys(N3)]TLRDIQRLLF (triazole 10-14; not fully specified (N-terminus, C-terminus)) [triazole-stapled BCL9 peptide 17 (reversed staple, D-Nle(εN3) at i+4)]
770	LSQEQLEHR[Pra]RSL[Lys(N3)]TLRDIQRLLF (triazole 10-14; not fully specified (N-terminus, C-terminus)) [triazole-stapled BCL9 peptide 16 (reversed linker, L-Pra and L-Nle(εN3))]

Further lines, the binder ahead of its results:

Binder	Ki [nM]
LSQEQLEHR[Lys(N3)]RSL[Pra]TLRDIQRLLF (not fully specified (N-terminus, C-terminus)) [BCL9 peptide 3 (linear precursor of 11)]	1400
Ac-LSQEQLEHRERSLQTLRDIQRMLF-NH2 [BCL9 24-mer peptide 1]	600
Ac-LSQEQLEHRERSLQTLRDIQRLLF-NH2 [BCL9 24-mer peptide 2 (M372L)]	940
LSQEQLEHR[Lys(N3)]RSL[dPra]TLRDIQRLLF (not fully specified (N-terminus, C-terminus)) [BCL9 peptide 4 (linear precursor of 12)]	4900
LSQEQLEHR[Lys(N3)]RSL[Pra]TLRDIQRLLF (triazole 10-14; not fully specified (N-terminus, C-terminus)) [triazole-stapled BCL9 peptide 11]	330
LSQEQLEHR[Pra]RSL[dLys(N3)]TLRDIQRLLF (not fully specified (N-terminus, C-terminus)) [BCL9 peptide 9 (linear precursor of 17)]	11000
